In the supplement of paper PMC10567573:

B1: RAD51 (parent)
chain: APKKELINIKGISEAKADKILAEA
B2: TMEM192 (parent)
chain: LWILHLLLECYIQYHHSKIRNRGY

Variants of: B1
Experiment: protein stability index of a GFP-peptide fusion (GPS, HEK-293T) (PSI 1-6); higher = more stable
Conditions: c terminus: a fixed tail appended
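Also: lentivirally expressed fusions sorted by FACS into six bins by GFP to DsRed ratio, PSI derived from sequencing read proportions per bin multiplied by bin number.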

Protein stability index: each site, then its substitutions
L21: I 5.32; M 4.98; V 4.79; W 4.27; K 5.2; Y 4.58; A 4.91; N 5.02; T 5.25; C 5.15; E 4.54; P 5.21; F 4.13; D 5.58; G 4.73; Q 5.18; S 5.46; H 4.95; R 4.96
D18: V 4.07; R 4.07; E 3.83; F 2.59; L 3.9; N 4.04; G 4.16; C 3.36; I 3.62; M 3.31; T 4.04; H 4.29; K 4.78; Q 4.27; Y 2.63; P 5.17; A 4.26; W 2.76; S 3.53
E23: D 4.96; A 4.18; F 3.46; L 3.43; Y 3.37; I 3.36; C 3.38; R 3.85; H 3.85; M 3.72; S 3.79; V 3.73; P 4.34; N 4.58; T 4.13; W 3.02; K 4.46; Q 4.26; G 4.1
A24: W 3.97; F 3.53; K 5.26; I 3.61; C 4.51; H 4.76; Q 5.1; S 4.75; D 4.83; G 4.9; L 4.4; V 4.26; E 3.9; T 5.36; R 4.83; N 4.96; P 4.91; Y 3.76; M 4.34
A22: W 3.58; H 4.52; K 5.24; L 4.19; N 4.59; C 4.25; D 5.38; T 3.9; Y 3.8; I 4.25; G 4.62; P 4.83; M 4.75; Q 5.15; F 3.98; S 4.61; E 5.28; R 4.84; V 4.79
I20: D 5.47; H 5.11; R 4.75; W 4.26; A 5.03; C 5.14; P 5.5; Q 5.69; F 4.02; T 5.16; N 5.38; Y 4.61; E 5.33; K 5.46; V 4.97; S 4.95; G 5.1; M 5.16; L 4.86
A17: G 4.84; K 4.83; Y 4.08; R 4.62; M 4.43; Q 5.11; V 4.53; I 4.15; H 4.49; P 4.82; T 4.42; W 3.98; N 4.94; S 5; L 4.53
K19: N 4.84; Q 4.78; M 4.43; L 3.89; F 3.7; D 4.98; C 4.44; A 3.63; W 3.48; S 4.89; E 5.12; G 4.93; P 4.48; T 4.83; V 4.49; I 3.38; R 4.26; H 4.3; Y 4.61

Variants of: B2
Experiment: as above
Conditions: c terminus: a fixed tail appended

Protein stability index of substitutions, site by site:
L1: H 4.56; V 2.17; G 3.04; D 3; M 1.48; Q 3.9; K 2.06; I 2.1; C 2.89; T 3.75; E 3.02; Y 2.72; A 3.09
W2: A 2.2; F 3.58; H 2.14; D 1.88; G 2.73; E 1.73
